Data on one substance can be found in PMC13537762.

In the experiment the target is respiratory complex III (mouse (endogenous in liver mitochondria)). The experiment is described as follows: native gel or EMSA; blue native PAGE (3-12% Bis-Tris) of digitonin-solubilised isolated liver mitochondria from control or CLS-LKO mice (standard chow); western blotting with a supercomplex antibody cocktail or subunit-specific antibodies. A general note: In EMSA bound probe runs differently from free probe, usually more slowly.

As usually defined, the stoichiometry N is the number of molecules, sites or subunits per partner or assembly. In the case of respiratory complex III, the stoichiometry N turned out to be 2.
